Positions count from the first letter of the chain named.
T1: huWISP-1 (Homo sapiens, UniProt O95388)
T1 sequence (O95388 23-367): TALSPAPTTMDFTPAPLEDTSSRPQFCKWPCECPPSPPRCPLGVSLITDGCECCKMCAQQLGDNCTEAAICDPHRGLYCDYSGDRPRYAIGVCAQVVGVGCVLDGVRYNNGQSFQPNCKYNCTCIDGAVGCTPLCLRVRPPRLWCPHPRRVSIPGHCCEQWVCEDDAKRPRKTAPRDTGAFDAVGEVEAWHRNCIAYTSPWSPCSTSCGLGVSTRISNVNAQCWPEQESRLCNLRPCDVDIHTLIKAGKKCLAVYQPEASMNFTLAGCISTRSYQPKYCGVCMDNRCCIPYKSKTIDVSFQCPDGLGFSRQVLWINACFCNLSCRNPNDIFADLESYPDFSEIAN

T2: Rat CTGF (Rattus norvegicus, UniProt Q9R1E9)
T2 construct: purchased R&D Systems
T2 sequence (Q9R1E9 25-347): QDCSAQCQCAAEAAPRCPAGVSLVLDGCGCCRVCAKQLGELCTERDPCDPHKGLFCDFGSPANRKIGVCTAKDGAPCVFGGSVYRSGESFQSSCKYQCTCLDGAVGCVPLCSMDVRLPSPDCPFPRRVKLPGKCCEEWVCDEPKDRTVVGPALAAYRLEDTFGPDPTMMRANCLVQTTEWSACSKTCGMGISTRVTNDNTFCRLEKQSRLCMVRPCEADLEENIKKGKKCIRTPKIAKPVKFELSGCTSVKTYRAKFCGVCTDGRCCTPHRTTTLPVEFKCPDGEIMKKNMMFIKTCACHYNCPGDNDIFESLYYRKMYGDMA

B1: SEQ ID NO: 23: optimized CTGF-binding hNGAL lipocalin mutein (protein)
chain: QDSTSDLIPAPPLSKVPLQQNFQDNQFQGKWYVVGVAGNAILRPDKQPAKMFATIYELKEDKSYDVTSVRFEAKSCKYTIKTFVPGSQPGEFTSGQIKSAPGQTSTLVRVVSTNYNQHAMVFFKHVSQNREIFVITLYGRTKELTSELKENFIRFSKSLGLPENHIVFPVPIDQCIDG
modifications: lipocalin mutein
B2: SEQ ID NO: 74: fusion protein comprising two CTGF-binding lipocalin muteins (protein)
chain: QDSTSDLIPAPPLSKVPLQQNFQDNQFQGKWYVVGLAGNAILREDKQPAKMFATIYELKEDKSYDVTSVRFEAKSCKYTIKTFVPGSQPGEFTAGYIKSAPGQTSTLVRVVSTNYNQHAMVFFKHVTQNREIFVITLYGRTKELTSELKENFIRFSKSLGLPENHIVFPVPIDQCIDGGGGGSGGGGSGGGGSQDSTSDLIPAPPLSKVPLQQNFQDNQFQGKWYVVGWAGNVKLREDKQPQKMSATIYELKEDKSYDVTEVVFEQKKCHYIIKTFVPGSQPGEFTAGDIKSPPGYTSSLVRVVSTNYNQHAMVFFKKVSQNREFFWITLYGRTKELTSELKENFIRFSKSLGLPENHIVFPVPIDQCIDG
modifications: fusion protein
B3: SEQ ID NO: 9: parent CTGF-binding hNGAL lipocalin mutein (protein)
chain: B1 chain with Q28H, V36L, A40K, P44I, K74R, K77S, S94A, Q96N, I132T
modifications: lipocalin mutein
B4: SEQ ID NO: 15: optimized CTGF-binding hNGAL lipocalin mutein (protein)
chain: B1 chain with V36L, P44E, S94A, Q96Y, S127T
modifications: lipocalin mutein
B5: SEQ ID NO: 25: parent CTGF-binding hNGAL lipocalin mutein (protein)
chain: QDSTSDLIPAPPLSKVPLQQNFQDNQFHGKWYVVGMAGNFRLREDKDPSKMGATIYELKEDKSYNVTQVQFDDKKCLYVIETFVPGSQPGEFTLGAIKSFPGFTSQLVRVVSTNYNQHAMVFFKKVYQNREVFWITLYGRTKELTSELKENFIRFSKSLGLPENHIVFPVPIDQCIDG
modifications: lipocalin mutein
B6: SEQ ID NO: 29: parent CTGF-binding hNGAL lipocalin mutein (protein)
chain: QDSTSDLIPAPPLSKVPLQQNFQDNQFHGKWYVVGWAGNIKLREDKDPFKMSATIYELKEDKSYNVTEVVFEQKKCHYIIKTFVPGSQPGEFTLGDIKSPPGETSSLVRVVSTNYNQHAMVFFKKVFQNREFFWITLYGRTKELTSELKENFIRFSKSLGLPENHIVFPVPIDQCIDG
modifications: lipocalin mutein
B7: SEQ ID NO: 3: parent CTGF-binding hNGAL lipocalin mutein (protein)
chain: QDSTSDLIPAPPLSKVPLQQNFQDNQFHGKWYVVGRAGNNRLREDKDPPKMWATIYELKEDKSYNVTHVHFMTKKCRYIIDTFVPGSQPGEFTLGAIKSGPGMTSPLVRIVSTNYNQHAMVFFKWVNQNREWFTITLYGRTKELTSELKENFIRFSKSLGLPENHIVFPVPIDQCIDG
modifications: lipocalin mutein
B8: SEQ ID NO: 7: parent CTGF-binding hNGAL lipocalin mutein (protein)
chain: QDSTSDLIPAPPLSKVPLQQNFQDNQFHGKWYVVGLAGNYGLRTDKRPSKMFATIYELKEDKSYDVTSVRFEQERCHYTIRTFVPGSQPGEFTTGSIKSRPGQTSSLVRVVSTNYNQHAMVFFKSVIQNREYFAITLYGRTKELTSELKENFIRFSKSLGLPENHIVFPVPIDQCIDG
modifications: lipocalin mutein

What was measured:
huWISP-1 = target: T1, huWISP-1; test: Specificity ELISA (CCN proteins), huWISP-1; type: binding; details: coated 1 μg/ml; assessed when human CTGF signal approached saturation
Description: Binding of muteins to closely related proteins of CTGF was tested by an ELISA assay. In detail, a 384-well plate suitable for fluorescence measurements (Greiner FLUOTRAC™ 600, black flat bottom, high-binding) was coated with 20 μl of human CTGF or the other members of the CCN protein family at a concentration of 1 μg/ml in PBS over night at 4° C. After washing with PBS with 0.05% Tween 20, wells were blocked with 100 μl blocking buffer containing 0.1% Tween 20 and 2% BSA (PBS-T/BSA) for 1 h at room temperature. 20 μl of serially diluted muteins starting at 1000 nM were incubated in PBS-T/BSA for 1 h at room temperature (RT).
The residual supernatants were discarded and 20 μl HRP-labeled anti-NGAL or anti-Strep-Tag antibody was added at a predetermined optimal concentration in PBS-T/BSA and incubated for 1 h at RT. After washing, 20 μl fluorogenic HRP substrate (QuantaBlu, Thermo) was added to each well, and the reaction was allowed to proceed for 2 to 60 minutes. The fluorescence intensity of every well on the plate was read using a fluorescence microplate reader (Tecan). When the signal for human CTGF approached saturation, the cross reactivity to the other proteins was assessed.

[1] = Thermal stability assessment by nanoDSC; type: physicochemical; details: 1 mg/mL in PBS, scan 25-100° C. at 1° C./min; for TM: major transition
Method in brief: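 CTGF-specific lipocalin muteins at 1 mg/mL in PBS scanned from 25 to 100° C at 1° C/min by capillary nano-DSC. Where several transitions occur, the Tm of the major unfolding event is reported, along with onset temperature. Some muteins were expressed in E. coli, others in CHO cells.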

human CTGF [2] = target: T3, human CTGF (Homo sapiens, UniProt P29279); test: SPR binding kinetics and affinity, human CTGF; details: 25° C., 1:1 binding model
T3 construct: purchased Creative Biomart
Method in brief: (§1)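 Biacore SPR at 25 °C; CTGF either Fc-captured via anti-human IgG (HBS-EP+) or amine-coupled to CM5 (300–1100 RU). Muteins injected 180 s contact, 900–3600 s dissociation, 30 μL/min.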

human CTGF [3] = target: T4, human CTGF (Homo sapiens, UniProt P29279, H83D); test: SPR binding kinetics and affinity, human CTGF; details: 25° C., 1:1 binding model
T4 construct: purchased Creative Biomart
Method in brief: as §1

Rat CTGF = target: T2, Rat CTGF; test: SPR binding kinetics and affinity, rat CTGF; details: 25° C., 1:1 binding model
Method in brief: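 Targets either amine-coupled to CM5 chip (300–1100 RU; Fc-tagged human, untagged rat/murine) or Fc-captured via anti-human IgG; muteins injected 180 s contact, 900–3600 s dissociation, 30 μL/min, 25° C. Double-referenced sensorgrams fit to 1:1 model giving kon, koff and KD.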

T4 sequence (P29279 with tags, fused parts or gaps H83D): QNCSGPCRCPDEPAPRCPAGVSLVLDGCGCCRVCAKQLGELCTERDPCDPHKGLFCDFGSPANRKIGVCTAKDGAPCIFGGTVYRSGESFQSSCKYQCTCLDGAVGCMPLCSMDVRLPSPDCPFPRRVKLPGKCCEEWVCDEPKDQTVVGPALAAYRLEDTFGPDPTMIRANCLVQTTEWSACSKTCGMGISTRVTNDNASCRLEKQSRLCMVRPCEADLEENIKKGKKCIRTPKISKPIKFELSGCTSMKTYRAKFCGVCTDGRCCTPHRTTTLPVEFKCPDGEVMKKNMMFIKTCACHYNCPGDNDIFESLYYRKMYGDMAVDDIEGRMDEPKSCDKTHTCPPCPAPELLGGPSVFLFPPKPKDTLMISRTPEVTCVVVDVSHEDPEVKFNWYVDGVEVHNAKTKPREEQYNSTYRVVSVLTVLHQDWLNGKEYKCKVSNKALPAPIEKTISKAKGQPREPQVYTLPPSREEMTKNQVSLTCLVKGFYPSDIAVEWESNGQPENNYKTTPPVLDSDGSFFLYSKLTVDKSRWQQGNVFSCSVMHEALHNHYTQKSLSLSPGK
T3 sequence (P29279 with tags, fused parts or gaps H83D): as above

Row | Molecule | ELISA binding to huWISP-1 (huWISP-1) | ONSET MELTING [1] [°C] | TM [1] [°C] | human CTGF koff (human CTGF [2]) [s⁻¹] | human CTGF kon (human CTGF [3]) [M⁻¹ s⁻¹] | Kd (Rat CTGF) [nM] | Rat CTGF koff (Rat CTGF) [s⁻¹] | Rat CTGF kon (Rat CTGF) [M⁻¹ s⁻¹] | Kd (human CTGF [3]) [nM]
1 | B1 | No binding | 55 | 71 | 9.42e-06 | 122000 | – | – | – | –
2 | B2 | No binding | 62 | 72 | – | – | – | – | – | –
3 | B3 | No binding | – | 64 | 0.00102 | 79800 | 16 | 0.00169 | 105000 | 12.8
4 | B4 | No binding | 59 | 73 | 4.47e-05 | 81700 | – | 0.000114 | 120000 | –
5 | B5 | No binding | – | 66 | 0.000248 | 26800 | 27.7 | 0.00129 | 46500 | 9.27
6 | B6 | No binding | – | 76 | 0.00112 | 100000 | 18 | 0.00317 | 176000 | 11.2
7 | B7 | No binding | – | 58 | 0.00749 | 200000 | 39.3 | 0.0117 | 297000 | 37.5
8 | B8 | No binding | – | 65 | 0.00587 | 97600 | 62.8 | 0.00754 | 120000 | 60.2
